This assay deals with Low-density lipoprotein receptor-related protein 1 (LRP1) (mouse (endogenous in gonadal fat tissue)).

B1: Apolipoprotein A4 (APOA4) in gonadal fat tissue of WT mice injected with recombinant mouse APOA4 (natural protein)
chain: EVTSDQVANVVWDYFTQLSNNAKEAVEQFQKTDVTQQLSTLFQDKLGDASTYADGVHNKLVPFVVQLSGHLAQETERVKEEIKKELEDLRDRMMPHANKVTQTFGENMQKLQEHLKPYAVDLQDQINTQTQEMKLQLTPYIQRMQTTIKENVDNLHTSMMPLATNLKDKFNRNMEELKGHLTPRANELKATIDQNLEDLRRSLAPLTVGVQEKLNHQMEGLAFQMKKNAEELQTKVSAKIDQLQKNLAPLVEDVQSKVKGNTEGLQKSLEDLNRQLEQQVEEFRRTVEPMGEMFNKALVQQLEQFRQQLGPNSGEVESHLSFLEKSLREKVNSFMSTLEKKGSPDQPQALPLPEQAQEQAQEQAQEQVQPKPLES
The molecule B1 returned a glucose uptake in 3T3-L1 mature adipocytes treated with 0, 0.5, 1, 2 uM r-m-APOA4 for 1 h; percent increase against buffer (~22% at 0.5 uM, ~34% at 1 uM, ~44% at 2 uM) of 44%.
